Laboratory results published in PMC7720491.

How the values were obtained:
[1] = biological target: recombinant F. hepatica cathepsin L3 (FhCL3), activated mature enzyme (Fasciola hepatica)
[2] = biological target: recombinant F. hepatica cathepsin L1 (FhCL1), activated mature enzyme (Fasciola hepatica)
[3] = biological target: recombinant F. hepatica cathepsin L2 (FhCL2), activated mature enzyme (Fasciola hepatica)
[4] = biological target: recombinant F. hepatica cathepsin L3 (FhCL3), activated mature enzyme (Fasciola hepatica); remark: listed apart in the source
[5] = biological target: recombinant F. hepatica cathepsin L1 (FhCL1), activated mature enzyme (Fasciola hepatica); remark: listed apart in the source
[6] = biological target: human cathepsin L (HsCL) (human); experiment: enzyme inhibition kinetics (Ki, Morrison equation)
[7] = biological target: recombinant F. hepatica cathepsin L2 (FhCL2), activated mature enzyme (Fasciola hepatica); experiment: enzyme inhibition kinetics (Ki, Morrison equation)
[8] = biological target: recombinant F. hepatica cathepsin L3 (FhCL3), activated mature enzyme (Fasciola hepatica); experiment: enzyme inhibition kinetics (Ki, Morrison equation)
[9] = biological target: human cathepsin K (HsCK) (human) (UniProt P43235); experiment: enzyme inhibition kinetics (Ki, Morrison equation)
Sequence of human cathepsin K (HsCK) (human) (P43235 115-329): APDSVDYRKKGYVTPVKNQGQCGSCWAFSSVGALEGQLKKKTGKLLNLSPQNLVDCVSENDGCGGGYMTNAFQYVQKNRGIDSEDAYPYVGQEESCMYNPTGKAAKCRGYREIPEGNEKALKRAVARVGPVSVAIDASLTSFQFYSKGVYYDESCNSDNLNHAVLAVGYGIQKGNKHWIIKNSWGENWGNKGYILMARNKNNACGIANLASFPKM

[10] = biological target: recombinant F. hepatica cathepsin L1 (FhCL1), activated mature enzyme (Fasciola hepatica); experiment: enzyme inhibition kinetics (Ki, Morrison equation)

Substance | percent reduction of peptidase activity by 500 nM 33-mer peptide, pH 7.0 [1] [%] | percent reduction of peptidase activity by 500 nM 33-mer peptide, pH 7.0 [2] [%] | percent inhibition of recombinant peptidase activity by 10 nM propeptide, pH 7.0 [3] [%] | percent inhibition of recombinant peptidase activity by 10 nM propeptide, pH 7.0 [4] [%] | percent inhibition of recombinant peptidase activity by 10 nM propeptide, pH 7.0 [5] [%] | Ki [6] [nM] | Ki [7] [nM] | Ki [8] [nM] | Ki [9] [nM] | Ki [10] [nM]
33-mer synthetic peptide derived from the FhCL3 propeptide (p45 to p77) | 50 | 30 | – | – | – | – | – | – | – | –
ppFhCL3_Glu^68/Arg^68 (domain or fragment) | – | – | < 20 | < 20 | 95 | 6.04 | 0.02 | 0.002 | 1.4 | 0.3
ppFhCL3_Leu^66/Gly^66 (domain or fragment) | – | – | – | – | 90 | > 10000 | > 10000 | 8 | > 10000 | 0.05
ppFhCL3_Tyr^46Lys^47/Ala^46Ala^47 (domain or fragment) | – | – | – | – | 85 | > 10000 | > 10000 | > 10000 | > 10000 | 1.26
recombinant FhCL3 propeptide (ppFhCL3), wild type (from UniProt A0A879R2T5 1-326) (domain or fragment) | – | – | 97 | 100 | 98 | 26.6 | 0.004 | < 0.002 | 2 | 0.04
